Laboratory results: patent US20160340418A1 (US Dept. of Health and Human Services, published 2016)

B1: matrilin-3-binding antibody fragment 22 (clone 22 scFv fused with human IgG1 Fc fragment) (Fc fusion)
scFv: LQQSGPGLVKPSQTLSLTCAISGDSVSSNSAAWNWIRQSPSRGLEWLGRTYYGSKWYNDYAPSVKSRISINPDTSKNQFSLQLNSVTPEDTAVYYCTRGIWNAFDIWGQGTMVTVSSGGGGSGGGASGGGGSSSELTQDPAVSVALGQTVRITCQGDSLRSYYASWYQQKPGQAPLLVIYDRDNRPSGIPDRFSGSSSGNTASLTITGAQAEDEADYYCQSYDTSLSWVFGGGTQLTVL
notes: Tested as scFv-Fc; not shown: human IgG1 Fc fragment encoded by the modified pSecTagB vector; Avi tag downstream of the Fc in the vector
B2: matrilin-3-binding antibody fragment 13 (clone 13 scFv fused with human IgG1 Fc fragment) (Fc fusion)
scFv: LVQSGAEVKKPGASVKVSCKASGGTFSSYAISWVRQAPGQGLEWMGGIIPIFGTANYAQKFQGRVTITADKSTSTAYMELSSLRSEDTAVYYCARGQGYWFDPWGQGTLVTVSSGGGGSGGGASSGGGSDVQLTQSPSSLSASVGDRVTITCQASQDISNYLNWYQQKPGKAPKLLIYDASNLETGVPSRFSGSGSGTDFTFTISSLQPEDIATYYCQQYDNLPLTFGGGTKLEIK
notes: Tested as scFv-Fc (culture supernatant or protein A purified); not shown: human IgG1 Fc fragment encoded by the modified pSecTagB vector; Avi tag downstream of the Fc in the vector

Assays:
[1] = target: T1, recombinant human matrilin-3 protein (human, UniProt O15232 29-486); test: ELISA, coated recombinant matrilin-3, purified scFv-Fc titrated 230 nM to 0.014 nM, HRP anti-Fc
T1 construct: Bought from R&D Systems; It was biotinylated through an Avi tag for the library selection; also called human recombinant matrilin-3
T1 sequence: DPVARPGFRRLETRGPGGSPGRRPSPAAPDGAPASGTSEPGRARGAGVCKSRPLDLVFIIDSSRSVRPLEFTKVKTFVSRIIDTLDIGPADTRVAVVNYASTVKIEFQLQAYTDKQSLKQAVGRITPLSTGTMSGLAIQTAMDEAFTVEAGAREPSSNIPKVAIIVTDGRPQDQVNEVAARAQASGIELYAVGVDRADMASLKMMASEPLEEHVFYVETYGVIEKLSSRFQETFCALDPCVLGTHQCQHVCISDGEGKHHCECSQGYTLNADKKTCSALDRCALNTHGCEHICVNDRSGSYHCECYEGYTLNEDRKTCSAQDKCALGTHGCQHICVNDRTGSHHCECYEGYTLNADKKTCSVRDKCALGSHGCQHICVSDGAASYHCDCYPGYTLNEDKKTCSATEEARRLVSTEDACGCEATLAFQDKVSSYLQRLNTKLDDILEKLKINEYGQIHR

[2] = target: T2, recombinant mouse matrilin-3 protein (mouse, UniProt O35701 28-481, limits assumed); test: as above
T2 construct: also called mouse recombinant matrilin-3; His-Tagged recombinant mouse matrilin-3
T2 sequence (looked up): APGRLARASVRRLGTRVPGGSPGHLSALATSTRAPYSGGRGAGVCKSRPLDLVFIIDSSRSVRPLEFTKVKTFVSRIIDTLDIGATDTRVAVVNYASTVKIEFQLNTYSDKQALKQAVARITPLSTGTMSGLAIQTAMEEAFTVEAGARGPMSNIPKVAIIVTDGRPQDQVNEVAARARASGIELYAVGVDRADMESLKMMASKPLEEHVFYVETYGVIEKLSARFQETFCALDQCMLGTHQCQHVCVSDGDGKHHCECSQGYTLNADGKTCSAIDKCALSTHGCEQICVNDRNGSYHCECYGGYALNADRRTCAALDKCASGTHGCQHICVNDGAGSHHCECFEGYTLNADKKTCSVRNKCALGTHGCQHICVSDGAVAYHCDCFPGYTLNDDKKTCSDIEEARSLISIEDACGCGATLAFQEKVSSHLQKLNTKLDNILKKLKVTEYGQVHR

Binder	EC50 [1]	EC50 [2]
B1	< 1 nM	< 1 nM
B2	< 1 nM	< 1 nM
